Biological target: GFP (wild-type green fluorescent protein) (Aequorea victoria, UniProt P42212 P42212:1-238)
Assay: filter; higher affinity than G16
Details: tags: His-tag (His-tagged GFP used on Ni beads in selection)

Row | Binder | binding result
1 | AP6 (ssRNA) RNA: GGGAGCACGAUUCCAUUGGAUGCCACCGCGACUACGGUUAGUAGGCAUUCUGAGUCGUGGCGAAUUGGGUGGGGAAAGUCCUGAAAAGAGGGCCACCACAGAGGCUCAAACUGGACGUUAAUGACGUUUCGGUUCAGUACAAGCUUCUGGACUCGGU | binds
2 | AP2 (ssRNA) RNA: GGGAGCACGAUUCCAUGCAAUUGUCGAGUUGUUAGCAGCAGCUUGCAUAUUGAGUCGUGGCGAAUUGGGUGGGGAAAGUCCUAAAAAGAGGGCCACCACAGAGGUUUGUACCCAUACUACAAGCUUCUGGACUCGGU | binds
3 | AP4 (ssRNA) RNA: GGGAGCACGAUUCCAUGAUUCUCGUAUCAAGGAAGGGUUAUGAGAUUUAGGUAAACGUGGCGAAUUGGGUGGGGAAAGUCCUAAAAAGAGGGCCACCACAGAGGCUUGUAAUCGAUGUUACUAUAGAGGGACACGACUACAAGCUUCUGGACUCGGU | binds
